Primed or numbered codes have the meaning given here. No end group written: not given here. *: point of attachment. Dabcyl′ = CN(C)c1ccc(/N=N/c2ccc(C(=O)*)cc2)cc1
What was measured:
SBT189 = assay: Transient state kinetics with FRET peptide: product release and product binding; parameters: species or system Bacillus amyloliquefaciens; details: not influenced by azide concentration
Procedure: (§1) The deacylation reaction and product release: A self-quenched FRET peptide that becomes highly fluorescent when cleaved (Dabcyl-EEDKLFRAL-SATE(EDANS)G (SEQ ID NO:16)) was synthesized. This peptide has been used to determine transient state kinetic parameters. Deacylation of SBT189 in 50 mM azide is faster (3.3 s^−1) than the wild type counterpart (1.8 s^−1). The rate of product (Dabcyl-EEDKLFRAL; (SEQ ID NO:17)) release is 6 s^−1 and Kp is 1.2 μM. Product binding is not influenced by azide concentration. Strong product binding of subtilisin-phage to GA-PCOGNATE- is used for the collection of active mutants in the release step in phage selection (see FIG. 5). Binding is constitutive at this step, however, and is not used to increase selectivity.

subtilisin = details: competitive inhibitor of active subtilisin; cited from earlier work
GB-LFRAL-SA-GFP = assay: Digestion of GB-LFRAL-SA-GFP fusion protein in E. coli extract (protein gel, MALDI-MS); type: biochemical; details: 20 μM fusion protein, 50 nM SBT189, 10 mM azide, 0.1M KPi, pH 7.2, 22° C.
Procedure: In order to evaluate sequence specificity of SBT189 for the cognate sequence identified by phage display, a gene was constructed to direct the synthesis of a fusion of the 56 amino acid B domain (GB) of streptococcal Protein G to a linker comprising the cognate sequence LFRAL-SA (SEQ ID NO:5) followed by GFP. Accordingly, the protein is denoted “GB-LFRAL-SA-GFP”.
Timepoints were collected as indicated. The fusion protein (20 μM) was mixed with 50 nM of SBT189 in 10 mM azide, 0.1M KPi, pH 7.2, at 22° C.

[1] = tested on: Dabcyl-EEDKLFRAL-SATE(EDANS)G; assay: Transient state kinetics with self-quenched FRET peptide: deacylation; type: biochemical; details: SBT189 in 50 mM azide
Procedure: as §1

GA-PLFRAL-S-GB = assay: Acylation kinetics (GB release) of pre-formed enzyme-substrate complex monitored by fluorescence; type: biochemical
Description: In panels A-C, RSUB1(AF350) represents subtilisin SBT189 conjugated to AF350).
The acylation reaction: Step 2 describes conversion of the ternary complex into an acyl-enzyme with the concomitant release to the C-terminal portion of the substrate. With substrates used in phage display, the GB domain is released concomitantly with the acylation step. If a fluorescent reporter group is attached to subtilisin, a decrease in energy transfer enables time-dependent quantitation of acylation.

GA-PFRAL-S-GB = assay: Cleavage kinetics of GA-PFRAL-S-GB by position 166 mutant versus parent enzyme; type: biochemical; details: no azide
Procedure: Mutants were selected that cleave the substrate GA-PFRAL-S-GB in response to azide. Phage were bound to the GA-PFRAL-S-GB substrate and collected on IgG-Sepharose. The ability to hydrolyze the fusion protein is selected by washing the beads in 1 mM azide for 5 minutes in the release step. Phage are therefore released or retained from the resin based on the kinetics with which they cleave GA-PFRAL from GB under the triggering condition. Released phage were collected on HSA-Sepharose, acid eluted, neutralized, used to infect fresh E. coli cells, plated out, and colonies counted. Three cycles of selection were carried out. After three rounds of selection, the consensus amino acid at position 166 was threonine. The kinetic properties of the T166 mutant were compared to parent enzyme (SBT189), which has a serine at 166. The T166 mutant hydrolyzed GA-PFRAL-S-GB 1.5-times faster than SBT 189 in 1 mM azide. […] Thus the ratio of triggered rate to intrinsic rate was increased 5-fold by optimizing a single amino acid position in the S1 subsite. This ratio is a quantitative measure of how tightly the enzyme is regulated by the trigger.

Dabcyl-EEDKLFRAL ({Dabcyl′}-EEDKLFRAL)
rate of product release (SBT189): 6 s⁻¹

B1: 77 amino acid prodomain: 77 amino acid subtilisin prodomain (SEQ ID NO: 25) (protein, listed as Bacillus amyloliquefaciens)
chain: AGKSNGEKKYIVGFKQTMSTMSAAKKKDVISEKGGKVQKQFKYVDAASATLNEKAVKELKKDPSVAYVEEDHVAHAY
Ki (subtilisin): 540 nM

B2: SBT189: D32A mutant of subtilisin, azide-triggered protease (SEQ ID NO: 27) (protein)
chain: AKCVSYGVAQIKAPALHSQGYTGSNVKVAVLASGIDSSHPDLNVAGGASFVPSETNPFQDNNSHGTHVAGTVLAVAPSASLYAVKVLGADGSGQASWIINGIEWAIANNMDVINMSLGSPSGSAALKAAVDKAVASGVVVVAAAGNSGTSGSSSTVSYPAKYPSVIAVGAVDSSNQRAPFSSVGPELDVMAPGVSICSTLPGGKYGALSGTSMASPHVAGAAALILSKHPNWTNTQVRSSLENTATKLGDSFYYGKGLINVEAAAQ
modifications: Subtilisin related sequence
processing of the fusion protein (GB-LFRAL-SA-GFP): correctly and specifically processed | deacylation rate [1]: 3.3 s⁻¹ | rate of GB release (GA-PLFRAL-S-GB; 0.1M KPO4, pH 7.2, no azide, 22° C.): 0.0019 s⁻¹ | rate of GB release (GA-PLFRAL-S-GB; saturating azide): 6.4 s⁻¹ | azide dependent rate enhancement (GA-PLFRAL-S-GB; saturating azide versus no azide): about 3300 fold | cleavage rate in the absence of azide (GA-PFRAL-S-GB): 0.12 min⁻¹
